Measurements from patent US20260132214A1 (JECHO LABORATORIES, published 2026).
Numbering of substitutions follows the chain as printed.

B1: 71 anti-GPC3 scFv-Fc (Fc fusion)
VH: QVQLVESGGGVVQPGRSLRLSCAASGFTFSSYAMHWVRQAPGKGLEWVAVISYDGSNKYYADSVKGRFTISRDNSKNTLYLQMNSLRAEDTAVYYCARGGDGYNAAFDIWGQGTMVTVSS
VL: NFMLTQPPSVSESPGKTVTISCTGSSGSIASNYVQWYQQRPGSAPTTVIYEDNQRPSGVPDRFSGSIDSSSNSASLTISGLKTEDEADYYCQSYDSSKHYVFGTGTKVTVL
notes: scFv-Fc, human IgG1 constant regions
B2: P19 anti-GPC3 scFv-Fc (Fc fusion)
VH: EVQLVESGGGLVKPGGSLRLSCAASGFTFSDYYMSWIRQAPGKGLEWVSYISSSGSTIYYADSVKGRFTISRDNAKNSLYLQMNSLRAEDTAVYYCASVYMDVWGKGTTVTVSS
VL: EIVMTQSPGTLSLSPGERATLSCRASQTVSSSSLAWYQQRPGQAPRLLIYETSSRATGIPDRFSGSGSGTDFTLTISRLEPEDFAIYYCQQKGDSGYTFGQGTKVEIK
notes: as for B1
B3: P17-11F4 IgG (antibody, V domains shown)
VH: EVQLVESGGGLVQPGGSLRLSCAASGFTFKDYAMSWVRQAPGKGLEWVSALSGSGGATYYADSVKGRFTISRDNSKNTLYLQMNSLRAEDTAVYYCAKEMDFRYGWMHYYYGMDVWGQGTTVTVSS
VL: QSVLTQPPSVSGAPGQRVTISCTGSSSGYDVHWYQQLPGRAPKLLIYGSNNRPSGVPDRFSGSNSGTSASLAITGLQAEDEADYYCQSYDSSLNAIFGGGTKLTVL
notes: IgG
B4: P17-8E12 IgG (antibody, V domains shown)
VH: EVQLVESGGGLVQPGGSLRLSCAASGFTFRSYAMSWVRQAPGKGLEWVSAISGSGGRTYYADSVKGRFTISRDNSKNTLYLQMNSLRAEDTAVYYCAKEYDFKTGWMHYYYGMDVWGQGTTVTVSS
VL: B3 VL
notes: IgG
B5: P17 WT IgG (antibody, V domains shown)
VH: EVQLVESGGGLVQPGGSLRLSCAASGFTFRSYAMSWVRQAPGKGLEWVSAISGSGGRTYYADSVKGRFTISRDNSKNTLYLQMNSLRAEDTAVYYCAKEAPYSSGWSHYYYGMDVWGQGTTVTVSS
VL: B3 VL
notes: IgG
B6: P17-16E6 IgG (antibody, V domains shown)
VH: B3 VH with K30R, D31K, A50S, G53A, G56S, M100A, F102Y, R103S, Y104M
VL: B3 VL
notes: IgG
B7: P17-16A11 IgG (antibody, V domains shown)
VH: B3 VH with K30D, D31R, A50S, G53A, G56S, A57G, M100Y, R103S
VL: B3 VL
notes: IgG
B8: P17-16A1 IgG (antibody, V domains shown)
VH: B3 VH with D31R, A50S, L51V, G53S, G56T, A57G, M100Y, F102Y, R103G, Y104L
VL: B3 VL
notes: IgG
B9: P17 WT Fab (Fab, V domains shown)
VH: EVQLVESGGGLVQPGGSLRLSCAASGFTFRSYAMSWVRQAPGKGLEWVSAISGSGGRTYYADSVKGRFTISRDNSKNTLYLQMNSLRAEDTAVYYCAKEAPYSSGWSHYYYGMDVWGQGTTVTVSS
VL: B3 VL
notes: Fab format, lambda light chain (detected with an anti-Lambda antibody)
B10: P17-15D5 Fab (Fab, V domains shown)
VH: B3 VH with K30A, D31N, A50D, L51V, G53A, G56V, A57G, M100V, R103K, Y104L
VL: B3 VL
notes: Fab format
B11: P17-11F4 Fab (Fab, V domains shown)
VH: B3 VH
VL: B3 VL
notes: Fab format
B12: P17-16E6 Fab (Fab, V domains shown)
VH: B3 VH with K30R, D31K, A50S, G53A, G56S, M100A, F102Y, R103S, Y104M
VL: B3 VL
notes: Fab format
B13: P17-8E12 Fab (Fab, V domains shown)
VH: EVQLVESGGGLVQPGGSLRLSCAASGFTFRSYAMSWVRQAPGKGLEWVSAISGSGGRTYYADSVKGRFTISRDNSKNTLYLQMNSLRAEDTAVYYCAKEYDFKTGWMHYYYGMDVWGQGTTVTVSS
VL: B3 VL
notes: Fab format
B14: P17-13G2 Fab (Fab, V domains shown)
VH: B3 VH with K30G, D31E, A50G, L51M, G56D, A57G, F102Y, R103Q, Y104L
VL: B3 VL
notes: Fab format
B15: P17-16A11 Fab (Fab, V domains shown)
VH: B3 VH with K30D, D31R, A50S, G53A, G56S, A57G, M100Y, R103S
VL: B3 VL
notes: Fab format
B16: P17-13F3 Fab (Fab, V domains shown)
VH: B3 VH with K30E, D31G, A50N, L51V, G56D, A57G, M100Y, F102Y, R103K, Y104T
VL: B3 VL
notes: Fab format
B17: P17-15F8 Fab (Fab, V domains shown)
VH: B3 VH with K30G, D31N, A50G, L51V, G56D, A57G, M100Y, R103G, Y104L
VL: B3 VL
notes: Fab format
B18: P17-16A1 Fab (Fab, V domains shown)
VH: B3 VH with D31R, A50S, L51V, G53S, G56T, A57G, M100Y, F102Y, R103G, Y104L
VL: B3 VL
notes: Fab format
B19: P3 anti-GPC3 scFv-Fc (Fc fusion)
VH: QVQLQQSGPGLVKPSQTLSITCAISGDSVSSNSAAWNWIRQSPSRGLEWLGRTYYRSKWYNDYAVSVKSRITINPDTSKNQFSLQLNSVTPEDTAVYYCASSYYNGGYFDYWGQGTLVTVSS
VL: EIVLTQSPATLSVSPGGRATLSCRASQSVTTNLAWYQQKPGQAPRLLIYGASTRVTGVPRRFSGSGSGTDFTLTISSLQSEDSAVYYCQQYSGWGGFGGGTKVDIK
notes: as for B1
B20: P10 anti-GPC3 scFv-Fc (Fc fusion)
VH: EVQLVQSGAEVKKPGSSVKVSCKASGGTFRSYAISWVRQAPGQGLEWMGGIIPIFGTANYAQKFQGRVTITADELTSTAYMELSSLRSEDTAVYYCASRIGQWPTPFDYWGQGTLVTVSS
VL: QSVLTQPPSVSVAPGKTARITCGGNNIGSKSVHWYQQKPGQAPVLVIYYDSDRPSGIPERFSGSNSGNTATLTISRVEAGDEADYYCQVWDSSSDHPVFGGGTKLTVL
notes: as for B1
B21: P20 anti-GPC3 scFv-Fc (Fc fusion)
VH: B2 VH
VL: B20 VL with Q1S, S2Y, V3E, K16Q, I47V, Y49D, I57V, S92N, P97Q
notes: scFv-Fc, human IgG1 constant regions; The VH as printed is the same as that of P19

target: T1, Glypican 3 Protein, Human, Recombinant (His Tag) (Sino Biological, Cat #10088-H08H) (human, UniProt P51654 25-559); assay: sandwich-style epitope binning, Octet AHC biosensor, 300 nM human GPC3
T1 construct: Bought recombinant protein; also called Hu-GPC3 (10088-H08H); human GPC3; not shown: His tag
T1 sequence (P51654 25-559 limits assumed): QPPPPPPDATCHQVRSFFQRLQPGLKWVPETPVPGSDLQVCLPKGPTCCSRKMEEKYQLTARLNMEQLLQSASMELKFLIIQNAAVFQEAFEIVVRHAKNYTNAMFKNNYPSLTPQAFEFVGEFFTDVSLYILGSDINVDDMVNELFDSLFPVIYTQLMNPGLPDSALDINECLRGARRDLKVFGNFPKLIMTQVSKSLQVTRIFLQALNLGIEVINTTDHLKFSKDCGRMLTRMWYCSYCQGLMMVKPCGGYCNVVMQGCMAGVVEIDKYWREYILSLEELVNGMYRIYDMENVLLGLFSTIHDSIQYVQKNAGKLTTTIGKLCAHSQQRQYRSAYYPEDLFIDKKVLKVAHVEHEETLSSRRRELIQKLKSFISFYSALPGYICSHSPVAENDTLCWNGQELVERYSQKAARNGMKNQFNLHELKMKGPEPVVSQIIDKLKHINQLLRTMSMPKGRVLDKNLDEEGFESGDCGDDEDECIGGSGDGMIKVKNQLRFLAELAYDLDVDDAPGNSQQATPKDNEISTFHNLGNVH

B1: binds.
B2: binds.

target: T1, Glypican 3 Protein, Human, Recombinant …; assay: Octet QKe BLI, ratio of KDs against P17 WT

B3 and B4 are the same in “fold lower KD than P17 WT” value: 6000 fold for the first, 6000 fold for the second.

target: T1, Glypican 3 Protein, Human, Recombinant …; assay: Octet QKe BLI, IgG on AHC probe, GPC3 (Sino Biological) in solution, 1:1 fit

Compared with B5, B6 is 4500-fold lower in Kd: 5.99 nM for the first, 0.00133 nM for the second.

Going from B3 to B7, the Kd rises from less than 0.001 nM to 0.00103 nM. The first binds more tightly here.

Compared with B8, B4 is lower in Kd: 0.00117 nM for the first, less than 0.001 nM for the second.

First: B5
Second: B6
The koff of the first is 3000-fold higher: 0.000833 s⁻¹ for the first, 2.76e-07 s⁻¹ for the second.

B3 and B7 are within 1.5-fold of each other in koff: 1.83e-07 s⁻¹ for the first, 1.87e-07 s⁻¹ for the second.

B8 and B4 are within 1.5-fold of each other in koff: 2.51e-07 s⁻¹ for the first, 1.79e-07 s⁻¹ for the second.

B5 and B6 are within 1.5-fold of each other in kon: 139000 M⁻¹ s⁻¹ for the first, 208000 M⁻¹ s⁻¹ for the second.

B3 and B7 are within 1.5-fold of each other in kon: 188000 M⁻¹ s⁻¹ for the first, 182000 M⁻¹ s⁻¹ for the second.

B8 and B4 are within 1.5-fold of each other in kon: 215000 M⁻¹ s⁻¹ for the first, 223000 M⁻¹ s⁻¹ for the second.

target: T2, GPC3 expressed on the cell surface of HepG2, Huh7 and Hep3B cells (human, UniProt P51654 25-554); assay: flow cytometry, Fab titrated on Hep3B cells
T2 construct: Endogenous GPC3 of human liver tumour cell lines; also called Glypican 3 protein on the cell surface; endogenously expressed GPC3
T2 sequence (P51654 25-554 limits assumed): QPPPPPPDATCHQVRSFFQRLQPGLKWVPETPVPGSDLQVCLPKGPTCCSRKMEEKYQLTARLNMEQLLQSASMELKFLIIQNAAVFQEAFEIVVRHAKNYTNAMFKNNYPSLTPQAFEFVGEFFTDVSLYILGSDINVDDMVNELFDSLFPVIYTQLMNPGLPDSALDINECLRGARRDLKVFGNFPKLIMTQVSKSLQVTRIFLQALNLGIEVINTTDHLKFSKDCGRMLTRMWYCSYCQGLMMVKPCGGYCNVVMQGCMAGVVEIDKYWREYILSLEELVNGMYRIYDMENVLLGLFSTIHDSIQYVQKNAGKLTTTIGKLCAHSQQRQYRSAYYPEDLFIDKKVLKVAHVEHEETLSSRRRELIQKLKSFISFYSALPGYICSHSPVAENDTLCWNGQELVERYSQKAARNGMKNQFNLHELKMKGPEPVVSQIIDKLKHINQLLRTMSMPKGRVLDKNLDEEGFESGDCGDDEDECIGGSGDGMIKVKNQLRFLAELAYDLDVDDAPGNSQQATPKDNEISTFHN

Compared with B9, B10 is 2.2-fold lower in EC50: 21.3 ng/mL for the first, 9.7 ng/mL for the second.

B11 and B12 are within 1.5-fold of each other in EC50: 9.9 ng/mL for the first, 8.5 ng/mL for the second.

First: B13
Second: B14
The EC50 of the first is 1.6-fold lower: 8.3 ng/mL for the first, 13 ng/mL for the second.

First: B15
Second: B16
The EC50 of the first is 1.8-fold lower: 8.3 ng/mL for the first, 14.8 ng/mL for the second.

B17 and B18 are within 1.5-fold of each other in EC50: 10.4 ng/mL for the first, 7.4 ng/mL for the second.

target: Cy-GPC3 (GP3-C5225) (Cy (so in the source)); assay: Octet QKe BLI, antibody on AHC probe, antigen in solution, 1:1 fit

Compared with B19, B20 is 4.3-fold lower in Kd: 5.45 nM for the first, 1.28 nM for the second. The second binds more tightly here.

target: T1, Glypican 3 Protein, Human, Recombinant …; assay: as above

First: B19
Second: B21
The Kd of the first is 5-fold lower: 20.1 nM for the first, 100 nM for the second.

With B20 the Kd was 2.85 nM.

target: T3, Fc-tagged human Glypican 3 protein (Acro Biosystems, cat #GP3-H5258) (human, UniProt P51654 25-559); assay: ELISA, Fab titrated on coated Fc-tagged human GPC3, anti-Lambda HRP detection
T3 construct: Bought; also called recombinant human GPC3; not shown: Fc tag
T3 sequence (P51654 25-559 limits assumed): as the sequence (P51654 25-559 limits assumed) above

Compared with B9, B10 is 21-fold lower in EC50: 191 ng/mL for the first, 9 ng/mL for the second.

B11 and B12 are within 1.5-fold of each other in EC50: 9.5 ng/mL for the first, 9.6 ng/mL for the second.

B13 and B14 are within 1.5-fold of each other in EC50: 9.6 ng/mL for the first, 8.4 ng/mL for the second.

B15 and B16 are within 1.5-fold of each other in EC50: 8.7 ng/mL for the first, 11.7 ng/mL for the second.

B17 and B18 are within 1.5-fold of each other in EC50: 8.9 ng/mL for the first, 9.3 ng/mL for the second.
